The values that follow come from PMC12557600.

Common to all, as to assay: EMSA
Details in all cases: N16 of strand 1 = tetrahydrofuran (THF) abasic site analog; EMSA: 50 mM Tris pH 8.0, 1 mM EDTA, 0.2 mg/ml BSA, 50 mg/ml sucrose, 0.5 mg/ml bromophenol blue, 1 mM DTT; 2 nM DNA, at least 20 min; 10% 59:1 native gel …

Data set [1] concerns the target APE1 N174A N174A (Homo sapiens) (UniProt P27695).
A further data set deals with APE1 WT (Homo sapiens) (UniProt P27695).
Data set [2] addresses APE1 N174K N174K (Homo sapiens) (UniProt P27695).
Data set [3] concerns the target APE1 N174D N174D (Homo sapiens) (UniProt P27695).

Sequence of APE1 N174A N174A (Homo sapiens) (P27695 whole entry N174A): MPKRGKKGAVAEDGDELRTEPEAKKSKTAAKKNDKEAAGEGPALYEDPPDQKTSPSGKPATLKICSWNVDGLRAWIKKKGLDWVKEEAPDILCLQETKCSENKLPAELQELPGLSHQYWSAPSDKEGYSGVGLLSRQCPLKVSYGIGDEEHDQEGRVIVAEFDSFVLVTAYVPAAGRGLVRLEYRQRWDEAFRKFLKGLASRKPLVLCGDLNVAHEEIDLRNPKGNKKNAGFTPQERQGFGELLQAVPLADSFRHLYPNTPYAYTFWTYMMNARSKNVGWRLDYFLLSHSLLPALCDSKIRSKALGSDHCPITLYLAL
Sequence of APE1 N174D N174D (Homo sapiens) (P27695 whole entry N174D): as the sequence (P27695 whole entry N174A) above, with A174D counted along it
Sequence of APE1 N174K N174K (Homo sapiens) (P27695 whole entry N174K): as the sequence (P27695 whole entry N174A) above, with A174K counted along it
Sequence of APE1 WT (Homo sapiens) (P27695 whole entry): as the sequence (P27695 whole entry N174A) above, with A174N counted along it

Turning to “CGTTCGCTGATGCGCNCGACGGATCCGCAT / ATGCGGATCCGTCGAGCGCATCAGCGAACG [30-bp THF AP-DNA]”, the Kd in data set [1] was found to be 0.044 µM; in the data set with APE1 WT (Homo sapiens), 0.0009 µM; in data set [2], 0.017 µM; in data set [3], 0.013 µM.
